Measurements reported in US20240392024A1 (SHANGHAI CELGEN BIO PHARMACEUTICAL, published 2024).
Changes are numbered by the printed parent chain. Values joined by “and” are separate entries in the source; they are usually repeats but may differ in a detail not shown here. Equal values may be shown once.

T1: TNFR2-His (Sino Biological, 10417-H08H, NP_001057.1 Met1-Asp257, with multi-histidine tag expressed on … (human, UniProt P20333 23-257))
T1 construct: range 1-257; Bought protein; also called recombinant human TNFR2 protein; TNFR2-His antigen; not shown: C-terminal multi-histidine tag
T1 sequence (looked up): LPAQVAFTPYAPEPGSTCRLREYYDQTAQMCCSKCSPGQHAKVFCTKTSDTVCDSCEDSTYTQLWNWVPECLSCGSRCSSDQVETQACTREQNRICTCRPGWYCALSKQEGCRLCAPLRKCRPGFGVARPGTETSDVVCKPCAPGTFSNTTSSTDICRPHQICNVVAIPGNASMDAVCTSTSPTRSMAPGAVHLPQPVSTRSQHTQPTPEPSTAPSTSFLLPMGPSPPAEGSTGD

T2: recombinant human TNFR2 antigen (Kangdai, batch number A100114U) (human, UniProt P20333 23-257)
T2 construct: also called hTNFR2; TNFR2-FC (Shanghai Saijin Biopharmaceutical Co., Ltd., Qiangke, catalog number A100114U); not shown: Fc part of the bought TNFR2-FC
T2 sequence (looked up): T1 sequence (looked up)

T3: human TNFR2 on the cell membrane (human, UniProt P20333 23-461)
T3 construct: whole, on cells; One molecule for all cell formats; also called TNFR2-CHO cells; CHO-TNFR2
T3 sequence (looked up): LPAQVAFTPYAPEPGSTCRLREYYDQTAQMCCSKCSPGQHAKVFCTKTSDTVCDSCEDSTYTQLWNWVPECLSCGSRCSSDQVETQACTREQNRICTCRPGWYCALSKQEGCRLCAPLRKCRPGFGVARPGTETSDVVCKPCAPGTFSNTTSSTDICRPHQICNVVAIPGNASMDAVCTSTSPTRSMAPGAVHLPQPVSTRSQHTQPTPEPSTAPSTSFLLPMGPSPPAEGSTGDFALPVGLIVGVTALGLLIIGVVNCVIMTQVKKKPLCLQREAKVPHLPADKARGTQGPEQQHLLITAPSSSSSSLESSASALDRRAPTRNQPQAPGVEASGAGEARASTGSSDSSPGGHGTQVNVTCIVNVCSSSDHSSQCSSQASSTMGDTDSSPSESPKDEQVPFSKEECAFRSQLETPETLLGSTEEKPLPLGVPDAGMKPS

T4: recombinant cynomolgus monkey TNFR2 (Cyno. TNFR2) (Sino Biological, 90102-C021) (cynomolgus monkey, UniProt A0A2K5VET2 132-366)
T4 sequence: T1 sequence (looked up) with S16G, S36P, P117Q, N164H, E210A, S216G, M223V

B1: 11G2huVH2 + huVL2(P07267) (antibody, V domains shown)
VH: QVQLVQSGAEVKKPGASVKVSCKASGYTFITYDINWVRQAPGQGLEWIGWIYPRDGNTQFNENFKGRVTMTTDTSTSTAYMELRSLRSDDTAVYYCARGDRDYGYFDVWGQGTTVTVSS
VL: DIQMTQSPSSLSASVGDRVTITCRASQDISNYLNWYQQKPGKAPKLLIYFKSKLHSGVPSRFSGSGSGTDFTLTISSLQPEDFATYYCQQGNTLPLTFGGGTKLEIK
notes: Humanized 11G2
B2: 11G2huVH3 + huVL1(P07264) (antibody, V domains shown)
VH: B1 VH with P41T, K65Q, T72R, D73N, T76I, R84S, D89E
VL: B1 VL with Q6P, P8T, P44V, I106L
notes: Humanized 11G2
B3: 11G2huVH4 + huVL1(P07265) (antibody, V domains shown)
VH: B1 VH with F60Y, N61A, E62Q, N63K, K65Q
VL: B1 VL with Q6P, P8T, P44V, I106L
notes: Humanized 11G2
B4: 11G2huVH2 + huVL1(P07263) (antibody, V domains shown)
VH: B1 VH
VL: B1 VL with Q6P, P8T, P44V, I106L
notes: Humanized 11G2
B5: 11G2huVH1 + huVL1(P07262) (antibody, V domains shown)
VH: B1 VH with V20L, R67K, V68A, T72V, T74E, L83V
VL: B1 VL with Q6P, P8T, P44V, I106L
notes: Humanized 11G2
B6: 11G2huVH5 + huVL1(P07266) (antibody, V domains shown)
VH: QVQLVQSGAEVKKPGASVKVSCKASGYTFITYDINWVRQATGQGLEWIGWIYPRDGNTQYAQKFQGRVTMTRNTSISTAYMELSSLRSEDTAVYYCARGDRDYGYFDVWGQGTTVTVSS
VL: B1 VL with Q6P, P8T, P44V, I106L
notes: Humanized 11G2
B7: 11G2huVH3 + huVL2(P07268) (antibody, V domains shown)
VH: B6 VH with Y60F, A61N, Q62E, K63N
VL: B1 VL
notes: Humanized 11G2
B8: anti-human TNFR2 mouse monoclonal antibody 18A2 (antibody, V domains shown)
VH: DVQLQESGPGLVKPSQSLSLTCSVTGYSITSGYYWNWIRQFPGNKLEWMGYISYDGSNNYNPSLKKRISITRDTSKNQFFLKLNSVTTEDTATYYCTGGSGTSWGQGTLVTVSA
VL: DIVMTQSHKFMSTSVGDRVSITCKASQDVTTGIAWYQQKPGQSPKLLIYSASNRFTGVPDRFTGSGSGTDFTFTISSVQAEDLAVYFCQQHYSTPFTFGSGTKLEIQ
notes: also called 18A12
B9: 12E12-huVH6 + huVL4(P08940) (antibody, V domains shown)
VH: QVQLVQSGAEVKKPGASVKVSCKASGYTITDFYIHWVRQAPGQGLEWIGRVDPEDGNTEYAPNFQDRATMTTDTSTSTAYLELSSLRSEDTAVYYCSTWDGFSYFDYWGQGTTVTVSS
VL: EAVVTQSPATLSLSPGERATLSCRSSTGPVTTNNYANWVQQKPGQAFRGLIGGTNDRAPGIPARFSGSGSGTDTTLTISSLQPEDFAVYYCALWYRNHWVFGGGTKLEIK
notes: Humanized 12E12
B10: 12E12-huVH7 + huVL2(P08938) (antibody, V domains shown)
VH: B9 VH with Q43K, I48M, P62Q, N63K, D66G, A68V, S77D, L81M
VL: QAVVTQEPSLTVSPGGTVTLTCRSSTGPVTTNNYANWVQQKPGQAFRGLIGGTNDRAPGVPARFSGSLLGGKAALTLSGAQPEDEAEYYCALWYRNHWVFGGGTKLTVL
notes: Humanized 12E12
B11: 12E12-huVH7 + huVL4(P08941) (antibody, V domains shown)
VH: B9 VH with Q43K, I48M, P62Q, N63K, D66G, A68V, S77D, L81M
VL: B9 VL
notes: Humanized 12E12
B12: 12E12-huVH8 + huVL4(P08942) (antibody, V domains shown)
VH: EVQLVQSGAEVKKPGATVKISCKVSGYTITDFYIHWVQQAPGKGLEWMGRVDPEDGNTEYAPNFQDRVTITADTSTDTAYMELSSLRSEDTAVYYCSTWDGFSYFDYWGQGTTVTVSS
VL: B9 VL
notes: Humanized 12E12

Molecular target: T1, TNFR2-His (Sino Biological, 10417-H08H, …)
Assay: ELISA, coated TNFR2-His
How it was run: (§1)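 ELISA on plates coated with recombinant human TNFR2 carrying a C-terminal His tag, then blocked. Serially diluted antibodies were incubated, followed by an enzyme-labelled anti-IgG secondary antibody. Plates were developed with TMB and read on a microplate reader. EC50 is reported from the dilution series.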

Row | EC50 [nM] | Binder
1 | 0.282 | B1
2 | 0.328 | B2
3 | 0.286 | B3
4 | 0.336 | B4
5 | 0.095 | B5
6 | 0.094 | B6
7 | 0.271 | B7

Molecular target: T2, recombinant human TNFR2 antigen …
Assay: ELISA, coated recombinant human TNFR2
Method: (§2) After TMB development, the detection was performed using microplate reader: dual wavelength 450 nm/655 nm detection, and results were calculated by OD₄₅₀-OD₆₅₅.

Row | EC50 [µg/mL] | Binder
8 | 0.0465 | B8

Molecular target: T3, human TNFR2 on the cell membrane
Assay: flow cytometry, CHO-TNFR2 cells; CHO-TNFR2 cells
How it was run: (§3)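 Flow cytometry on CHO cells stably overexpressing human TNFR2, made by pcDNA3.4-TNFR2 transfection, drug selection and single-clone sorting. Cells in 96-deep-well plates were incubated with serially diluted antibodies, washed and stained with a fluorescent anti-IgG secondary antibody. Samples were read on a Beckman CytoFLEX. EC50 is reported from the dilution series.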

Row | EC50 [nM] | Binder
9 | 0.144 | B1
10 | 0.184 | B2
11 | 0.171 | B3
12 | 0.153 | B4
13 | 0.006 | B5
14 | 0.01 | B6
15 | 0.2 | B7

Molecular target: T3, human TNFR2 on the cell membrane
Assay: flow cytometry on CHO-TNFR2 cells
How it was run: as §3

Row | EC50 [µg/mL] | Binder
16 | 0.0214 | B1
17 | 0.0275 | B2
18 | 0.0256 | B3
19 | 0.0229 | B4
20 | 0.0009 | B5
21 | 0.0014 | B6
22 | 0.0299 | B7

Molecular target: T3, human TNFR2 on the cell membrane
Assay: flow cytometry on CHO-TNFR2 cells
Remark: another data set of the same source
How it was run: as §3

Row | EC50 | Binder
23 | 0.011 µg/mL and 0.073 nM | B9
24 | 0.0587 µg/mL and 0.394 nM | B10
25 | 0.0217 µg/mL and 0.145 nM | B11
26 | 0.0129 µg/mL and 0.087 nM | B12

Molecular target: T1, TNFR2-His (Sino Biological, 10417-H08H, …)
Assay: ELISA, plate coated with TNFR2-His
How it was run: as §1

Row | EC50 [µg/mL] | Binder
27 | 0.0421 | B1
28 | 0.049 | B2
29 | 0.0427 | B3
30 | 0.0502 | B4
31 | 0.0141 | B5
32 | 0.014 | B6
33 | 0.0404 | B7

Molecular target: T1, TNFR2-His (Sino Biological, 10417-H08H, …)
Assay: BLI, antibody captured on AHC probe, TNFR2 in solution
How it was run: (§4)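 Kon, koff and Kd were derived from kinetic association measurements by bio-layer interferometry on an Octet in Basic Kinetics mode. Antibody-capture sensors held antibodies at 50 nM in Q buffer (10 mM PBS pH 7.4, 0.02% Tween 20, 0.2% BSA). These sensors were then placed in recombinant human TNFR2, diluted 2-fold in Q buffer from a top concentration of 100 nM.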

Row | Kd [nM] | koff [s⁻¹] | kon [M⁻¹ s⁻¹] | Binder
34 | 4.03 | 0.0034 | 844000 | B9
35 | 1.7 | 0.00183 | 1.08e+06 | B10
36 | 2.8 | 0.0035 | 1.25e+06 | B11
37 | 3.25 | 0.00437 | 1.34e+06 | B12

Molecular target: T1, TNFR2-His (Sino Biological, 10417-H08H, …)
Assay: BLI, antibody captured on AHC probe, TNFR2-His in solution
How it was run: as §4

Row | Kd [nM] | koff [s⁻¹] | kon [M⁻¹ s⁻¹] | Binder
38 | 7.3 | 0.00205 | 280000 | B1
39 | 5.1 | 0.00161 | 316000 | B2
40 | 9.76 | 0.00255 | 261000 | B3
41 | 5.96 | 0.00171 | 287000 | B4
42 | 4.79 | 0.00115 | 239000 | B5
43 | 7.29 | 0.00163 | 223000 | B6
44 | 7.28 | 0.0022 | 302000 | B7

Molecular target: T1, TNFR2-His (Sino Biological, 10417-H08H, …)
Assay: ELISA, plate coated with TNFR2-His (second test)
How it was run: as §1

Row | EC50 | Binder
45 | 0.0279 µg/mL and 0.187 nM | B9
46 | 0.0262 µg/mL and 0.176 nM | B10
47 | 0.0273 µg/mL and 0.183 nM | B11
48 | 0.0353 µg/mL and 0.237 nM | B12

Molecular target: T2, recombinant human TNFR2 antigen …
Assay: ELISA, plate coated with recombinant human TNFR2 antigen
Method: as §2

Row | EC50 [nM] | Binder
49 | 0.312 | B8

Molecular target: T4, recombinant cynomolgus monkey TNFR2 …
Assay: ELISA, plate coated with recombinant cynomolgus monkey TNFR2
Method: as §2
Using the same method as above, the TNFR2 antigens of cynomolgus monkey and mouse (Sino Biological, 90102-C021 and 50128-M08H) were coated separately. The anti-human TNFR2 mouse monoclonal antibodies to be tested were gradient diluted, then added with the anti-mouse Fab segment secondary antibody (Jackson Immuno Research, 515-035-072), and TMB development was performed. ELISA was used to detect the binding of 8 strains of mouse monoclonal antibodies to recombinant mouse TNFR2 (mTNFR2) and cynomolgus monkey TNFR2 (Cyno. TNFR2).

Row | EC50 | Binder
50 | > 1 µg/mL and > 6.7 nM | B8
